Reference: article PMC11282955

The substances below were run against human angiotensin-converting enzyme 2 (hACE2) (UniProt Q9BYF1) (assay: SPR). Conditions: parent: est. 1.5 nM; read off a plot.

Row | Substance | Kd [nM]
1 | BA.2.86 spike receptor-binding domain (RBD) N417K | 0.62
2 | BA.2.86 spike receptor-binding domain (RBD) K484A | 1.2
3 | BA.2.86 spike receptor-binding domain (RBD) K403R | 1
4 | BA.2.86 spike receptor-binding domain (RBD) D450N | 0.52
5 | BA.2.86 spike receptor-binding domain (RBD) H505Y | 0.58
6 | BA.2.86 spike receptor-binding domain (RBD) P486F | 0.39
7 | BA.2.86 spike receptor-binding domain (RBD) L455S | 4.3
8 | BA.2.86 spike receptor-binding domain (RBD) ins483V | 0.88
9 | BA.2.86 spike receptor-binding domain (RBD) N417K; H505Y; L455F; F456L | 0.53
10 | BA.2.86 spike receptor-binding domain (RBD) K481N | 0.66
11 | BA.2.86 spike receptor-binding domain (RBD) W452L | 0.58
12 | BA.2.86 spike receptor-binding domain (RBD) L455F; F456L | 0.8
13 | BA.2.86 spike receptor-binding domain (RBD) H445V | 0.46
14 | BA.2.86 spike receptor-binding domain (RBD) N354Q | 1.6
15 | BA.2.86 spike receptor-binding domain (RBD) N417K; H505Y | 0.27
